Series [1] relates to HeLa Kyoto. Briefly: solubility in G1/S (NP-40 vs SDS abundance) (log2 ratio); higher = more soluble. The conditions noted are these: cell cycle stage: G1/S.
For series [2], the system named is HeLa Kyoto. Briefly: solubility change mitosis vs G1/S (difference of NP-40 vs SDS log2 ratios) (log2 ratio difference); higher = more soluble in mitosis.
In series [3] the test system is HeLa Kyoto. The series can be described thus: melting temperature (median over replicates), in situ; higher = more thermally stable.
Series [4] has as its system HeLa Kyoto. Briefly: thermal stability score vs G1/S (z-score of summed log2 fold changes over temperatures); higher = more thermally stable than in G1/S.
[5] abbreviates: cell cycle stage: early G1 (4.5 h after nocodazole release).
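Throughout, for melting temperature (median over replicates), in situ: HeLa Kyoto cells synchronized by double thymidine or nocodazole block, proteins quantified by TMT10plex mass spectrometry, three independent biological replicates.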
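Throughout, for solubility change mitosis vs G1/S (difference of NP-40 vs SDS log2 ratios): synchronized HeLa Kyoto cells (double thymidine block for G1/S, nocodazole release for mitosis), protein amounts in NP-40 versus SDS lysates quantified by mass spectrometry, three biological replicates.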
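Throughout, for solubility in G1/S (NP-40 vs SDS abundance): HeLa Kyoto cells arrested at G1/S by double thymidine block, proteins quantified by TMT10plex mass spectrometry in mild NP-40 versus SDS extracts, three biological replicates.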
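Throughout, for thermal stability score vs G1/S (z-score of summed log2 fold changes over temperatures): synchronized HeLa Kyoto cells, proteins quantified by TMT10plex mass spectrometry, three biological replicates, mitosis taken 0.5 h after nocodazole release, G1/S directly after double thymidine block.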

Chain of PPIB (chain, as listed by the source): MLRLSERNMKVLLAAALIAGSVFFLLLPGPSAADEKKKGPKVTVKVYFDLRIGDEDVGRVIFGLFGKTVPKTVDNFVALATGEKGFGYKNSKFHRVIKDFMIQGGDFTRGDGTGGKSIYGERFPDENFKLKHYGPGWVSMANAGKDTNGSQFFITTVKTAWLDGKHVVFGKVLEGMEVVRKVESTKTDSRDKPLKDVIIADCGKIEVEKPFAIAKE

As for ASAP1, the “solubility in G1/S (log2)” value with HeLa Kyoto [1] came to 0.0639. Further, the “solubility change mitosis (log2)” value in the series on HeLa Kyoto [2] was -0.0861. Further, the melting temperature in the series on HeLa Kyoto [3] (cell cycle stage: G1/S) is 50.5 °C; in the series with HeLa Kyoto [3] (cell cycle stage: mitosis), 51.1 °C. Besides, the thermal stability score in the series on HeLa Kyoto [4] (setting [5]) was 0.472; in the series with HeLa Kyoto [4] (cell cycle stage: mitosis) it was 0.143.

Regarding “MAENKGGGEAESGGGGSGSAPVTAGAAGPAAQEAEPPLTAVLVEEEEEEGGRAGAEGGAAGPDDGGVAAASSGSAQAASSPAASVGTGVAGGAVSTPAPAPASAPAPGPSAGPPPGPPASLLDTCAVCQQSLQSRREAEPKLLPCLHSFCLRCLPEPERQLSVPIPGGSNGDIQQVGVIRCPVCRQECRQIDLVDNYFVKDTSEAPSSSDEKSEQVCTSCEDNASAVGFCVECGEWLCKTCIEAHQRVKFTKDHLIRKKEDVSESVGASGQRPVFCPVHKQEQLKLFCETCDRLTCRDCQLLEHKEHRYQFLEEAFQNQKGAIENLLAKLLEKKNYVHFAATQVQNRIKEVNETNKRVEQEIKVAIFTLINEINKKGKSLLQQLENVTKERQMKLLQQQNDITGLSRQVKHVMNFTNWAIASGSSTALLYSKRLITFQLRHILKARCDPVPAANGAIRFHCDPTFWAKNVVNLGNLVIESKPAPGYTPNVVVGQVPPGTNHISKTPGQINLAQLRLQHMQQQVYAQKHQQLQQMRMQQPPAPVPTTTTTTQQHPRQAAPQMLQQQPPRLISVQTMQRGNMNCGAFQAHQMRLAQNAARIPGIPRHSGPQYSMMQPHLQRQHSNPGHAGPFPVVSVHNTTINPTSPTTATMANANRGPTSPSVTAIELIPSVTNPENLPSLPDIPPIQLEDAGSSSLDNLLSRYISGSHLPPQPTSTMNPSPGPSALSPGSSGLSNSHTPVRPPSTSSTGSRGSCGSSGRTAEKTSLSFKSDQVKVKQEPGTEDEICSFSGGVKQEKTEDGRRSACMLSSPESSLTPPLSTNLHLESELDALASLENHVKIEPADMNESCKQSGLSSLVNGKSPIRSLMHRSARIGGDGNNKDDDPNEDWCAVCQNGGDLLCCEKCPKVFHLTCHVPTLLSFPSGDWICTFCRDIGKPEVEYDCDNLQHSKKGKTAQGLSPVDQRKCERLLLYLYCHELSIEFQEPVPASIPNYYKIIKKPMDLSTVKKKLQKKHSQHYQIPDDFVADVRLIFKNCERFNEMMKVVQVYADTQEINLKADSEVAQAGKAVALYFEDKLTEIYSDRTFAPLPEFEQEEDDGEVTEDSDEDFIQPRRKRLKSDERPVHIK [TRIM33]”, the “solubility in G1/S (log2)” value in the series with HeLa Kyoto [1] turned out to be 0.105. In addition, in the series with HeLa Kyoto [2], the “solubility change mitosis (log2)” value was -0.201. Further, the melting temperature with HeLa Kyoto [3] (cell cycle stage: G1/S) came to 48.1 °C; in the series with HeLa Kyoto [3] (cell cycle stage: mitosis), 49.7 °C. Further, the thermal stability score came out at 2.02 in the series with HeLa Kyoto [4] (setting [5]) and 4.15 in the series with HeLa Kyoto [4] (cell cycle stage: mitosis).

With PPIB, the “solubility in G1/S (log2)” value with HeLa Kyoto [1] stood at 0.0181. In addition, the “solubility change mitosis (log2)” value in the series on HeLa Kyoto [2] is 0.0983. Besides, the melting temperature came to 53.8 °C in the series on HeLa Kyoto [3] (cell cycle stage: G1/S) and 54.4 °C in the series on HeLa Kyoto [3] (cell cycle stage: mitosis). Besides, the thermal stability score came to 4.65 in the series on HeLa Kyoto [4] (setting [5]) and 4.71 in the series on HeLa Kyoto [4] (cell cycle stage: mitosis).

As to “MPKRKVSSAEGAAKEEPKRRSARLSAKPPAKVEAKPKKAAAKDKSSDKKVQTKGKRGAKGKQAEVANQETKEDLPAENGETKTEESPASDEAGEKEAKSD [HMGN1]”, the “solubility in G1/S (log2)” value in the series on HeLa Kyoto [1] was 0.0899. Further, the “solubility change mitosis (log2)” value in the series with HeLa Kyoto [2] was determined as 1.47. Moreover, the melting temperature was determined as 59 °C in the series on HeLa Kyoto [3] (cell cycle stage: G1/S) and 56.4 °C with HeLa Kyoto [3] (cell cycle stage: mitosis). The thermal stability score in the series with HeLa Kyoto [4] (setting [5]) was -2.25; with HeLa Kyoto [4] (cell cycle stage: mitosis), -4.73.

Consider “MLGKGVVGGGGGTKAPKPSFVSYVRPEEIHTNEKEVTEKEVTLHLLPGEQLLCEASTVLKYVQEDSCQHGVYGRLVCTDFKIAFLGDDESALDNDETQFKNKVIGENDITLHCVDQIYGVFDEKKKTLFGQLKKYPEKLIIHCKDLRVFQFCLRYTKEEEVKRIVSGIIHHTQAPKLLKRLFLFSYATAAQNNTVTDPKNHTVMFDTLKDWCWELERTKGNMKYKAVSVNEGYKVCERLPAYFVVPTPLPEENVQRFQGHGIPIWCWSCHNGSALLKMSALPKEQDDGILQIQKSFLDGIYKTIHRPPYEIVKTEDLSSNFLSLQEIQTAYSKFKQLFLIDNSTEFWDTDIKWFSLLESSSWLDIIRRCLKKAIEITECMEAQNMNVLLLEENASDLCCLISSLVQLMMDPHCRTRIGFQSLIQKEWVMGGHCFLDRCNHLRQNDKEEVPVFLLFLDCVWQLVHQHPPAFEFTETYLTVLSDSLYIPIFSTFFFNSPHQKDTNMGREGQDTQSKPLNLLTVWDWSVQFEPKAQTLLKNPLYVEKPKLDKGQRKGMRFKHQRQLSLPLTQSKSSPKRGFFREETDHLIKNLLGKRISKLINSSDELQDNFREFYDSWHSKSTDYHGLLLPHIEGPEIKVWAQRYLRWIPEAQILGGGQVATLSKLLEMMEEVQSLQEKIDERHHSQQAPQAEAPCLLRNSARLSSLFPFALLQRHSSKPVLPTSGWKALGDEDDLAKREDEFVDLGDV [MTMR12]”, for which the “solubility in G1/S (log2)” value with HeLa Kyoto [1] is -0.0977. Also, in the series with HeLa Kyoto [2], the “solubility change mitosis (log2)” value is -0.11. The values for the melting temperature with HeLa Kyoto [3] (cell cycle stage: G1/S) and with HeLa Kyoto [3] (cell cycle stage: mitosis) were 56.1 °C and 56 °C, respectively. In addition, the thermal stability score in the series on HeLa Kyoto [4] (setting [5]) is -0.744; in the series on HeLa Kyoto [4] (cell cycle stage: mitosis), -0.447.

The values are drawn from the supplement of paper PMC5998384.
